# Source: the DeepSol protein solubility set
# Assay: soluble on expression in E. coli; label from the status in PepcDB or PDB records
row,Sequence,soluble on expression in E. coli
1,MTKVLFITANPNSAEGSFGMAVGEAFIEAYKNEHPQDEVVTIDLFNTTVPAIDADVFAAWGKFAAGEGFEALTEVQQQKVAAMNTNLETFMNADRYVFVTPMWNFSYPPVVKAYLDNVAIAGKTFKYTENGPVGLLEGKKALHIQATGGVYSEGAYAAVDFGRNHLKTVLGFVGVNDTEYIAVEGMNANPEKAQEIKEAAIANARELAKRF,not soluble
2,LSKDILQLVGGEENVQRVIHCMTRLRFNLHDNAKADRSQLEQLPGVMGTNISGEQFQIIIGNDVPKVYQAIVRHSNLSDEKSAGSSSQKKNVLSAVFDVISG,not soluble
3,MRMGRYFGTSGIREVVNEKLTPELALKVGLALGTYLQEGKVVIGCDTRTSSVMLKNAVISGLLATGIDVIDIGLAPTPLTGFAIRLYNAEAGVTITASHNPPQYNGIKVWDRDGMAYTPDKEHELEKIIESGNFRRVPWNEVGTLKTANPRKEYIEAILREINLKGSYTVVIDAGNGAGSIVSPYLHRELGNRVITLNSDPSGFFVRELEPNKESLSMLEKTVKVLNADIGIAHDGDADRVGVVDENGEFVEYEVMLSLIAGYMLKKYGKGKIVTTVDAGFALDDYIRELGGEVVRTRVGDVAVAEELVKHGGVFGGEPSGTWIMPQWNLTPDGIFASALVLEMIDRLGPIGELAKDVPKYVTLRKKIPCSNELKNKVMNKIADLIPREFSYERIITIDGIRIENDDWWILFRPSGTEPIMRITLEAHTEEMAERLMKKAENLVKSVIKDLSS,soluble
4,MGSDKIHHHHHHMIDNIMAILEPVIGRTIKRKISTMSGKKLPFIAGHKLLYTCNLRCDMCPFWRRKDEKLLSLEEEIKMMDSLASAGVSFMGFEGGEPLLRNDLEDILKESHKRFHTSLVTNGWLLKGRASSISRYLDYLFVSIDGRKETHDKQRGVPSSFDHAIEGIKEAKKYVPVAMSTTITTNNMDDIKYVVNLAEELGIGVNIQVSYDYSTADKLSPDRKKLYDLLLDLKKMKEDGAPIVNSKEYFDTLVNSWYYGIPWACKPWSTVNIDPQGRIVMPCYVLNEYAGEKKVWEIDIKELWNTYDWKPYESCNKCSLSCYLEPSIFSWRKPSMVSERIFGSIADYIASIF,not soluble
5,MGLCVSKGSTASSPQHYAVRYTEQVTPSPSPSVASTSPSLHDSTAIGSPLARRSVLLPHEVQQAAYQLAMRLNGRAIEDASDRKRLVDATATVHETRLALHRGRGKVDSDLRLSNGRSATYSSLSYCLGEDDENLLAGSALAAGAGNCDHNAAINTRRHAVRMEDGGQMMTVRDYEQTHLYALYQPPNSAEADESTVVLDSWGDGPAVLLRDSHWAESYGTSTHVIERFDKPDATDALARTNAFRAEIENPQTALHANARELETAFLANPAPGDIFSAMPVIAPHLAESTRRRLQECSPRTRNVLAADAARDAYGLDDAQANSPRTTKAILKEAKRLDALGRPPLSW,not soluble
6,MAPLKRRKVSAPTGNENTPRSTRSIRHKREDPRGKMKPLATSTRTSSVNKKKKNDDDYENFYSGENTITTMKPVVFPKKPVIFEHGYGIEDDIEDEIDDEELDDEEYEESGNGNEDEVEEEVGVEEQEIENNFAYKKVKSEISCSPFLKEHSVHSVLTNNRAKTGTIDSKAGRTAYRKQKLREGTCCSQSNEATGDSTDRSSTSAGFDVFQHLQNRAVQKTMIEQLESAVRNQDVMEMGNVVKKGLENGTLSEIQIEEFCKHTTRPNFSILQFVQALRQSTEDEKESIQIAQMMMFKMQDPKDGNYTALAANVHTLTSKISKQLNAGCIVKRTLTMNHTISQADGFPTCNLTDIYNSELLIGGDAVSQLSNFYMVALKTMLEPSYKIWAFTYRPSCVRRVDRHFQELPQKVTTAIIEVAFDIVGVYLPVELSYGSIDREHEFIKTLGEGAELEVQRRRDERITVFKNAVEALGKAMNNLRTYHFDIAKGALFNCNKPSYCEHHLKWGQVRKFREQHQRMETSPEEVIRFATGQRNEHDVSAAGRSVKDSTH,not soluble
7,MPSDAPIDFTGLIRASDLVVCGQATAEPLTLTEALMAQAADLPPFRLMVGPVFSDTFAAAPPNVSFVSYGVIGHARKLARAGRLDVIPSNYSAFCADFAAGRHRADVVLVQLAEAPDGRLSASLSCDYVIDAARRARLVIAEINPDAPFTYGAEWPGEVPIHIRVAARRKPVELPSGALDDVSRKIAANAAGLIADGATLQFGVGKIPDAILSSLVHARDLGIHSGLINDAVVELIERGVVTNARKGIDPGVTVTNQLIGTQRLYRFAHQNRSVRMQPAAYTHDHGVLGRINRLTAINSALQVGLDGSVNAETLNGVAIGAIGGQLDFVRGANASPGGRALIALPATAPDGSSRIVARVETVTTPRADVDVIVTEWGVAELRGCSLAERARQMIAIAAPEHRDRLAEQARTIALEHHHHHH,not soluble
8,HMSSGSAGLSSLHRTYSQDCSFKNSMYHVGDYVYVEPAEANLQPHIVCIERLWEDSAGEKWLYGCWFYRPNETFHLATRKFLEKEVFKSDYYNKVPVSKILGKCVVMFVKEYFKLCPENFRDEDVYVCESRYSAKTKSFKKIKLWTMPVSSVRFVPRDVPLPVVRVASVFANTD,soluble
9,MGSDKIHHHHHHMALMFPRLARNFVKNGYFPTDEPTLERALNALMPSDGSMCILDPCAGEGVAIAEAAHALGREQVKAFAVEFDAERARHARGLVDHCLHADLMDAMISKQSFGLLWLNPPYGDLSKDVNGNIGYQGQGRARLEKLFYQRSLSLLQYGGVLVFIVPGYVLDAELVGWLTRHYTDLRIYRAVETQFKQVVIFGRRVRQREQAPDGVKAVRNLLLQVGLGEVEAEELPSDWPFLPYIVPASPAEPEHFFRVTMEPEQFADEVGRLQGLWPSLDTHLGAAQQSLRPPARALSHWHLALALAAGAISGVVRSKTGRVLVVKGDTHKDKTLQREFTEREDGSIAETRILTDKFVPVIRAWDMTPSSATRGEVLTIR,not soluble
10,GYITVGNENSTPIELYYEDQGSGQPVVLIHGYPLDGHSWERQTRELLAQGYRVITYDRRGFGGSSKVNTGYDYDTFAADLHTVLETLDLRDVVLVGFSMGTGELARYVARYGHERVAKLAFLASLEPFLVQRDDNPEGVPQEVFDGIEAAAKGDRFAWFTDFYKNFYNLDENLGSRISEQAVTGSWNVAIGSAPVAAYAVVPAWIEDFRSDVEAVRAAGKPTLILHGTKDNILPIDATARRFHQAVPEADYVEVEGAPHGLLWTHADEVNAALKTFLAK,soluble
11,MGSDKIHHHHHHMPLSMNREVFITCAVTGSGGTQDRSPHVPRSPKEIAESAIAAAKAGAAIVHCHVRDPETGAPSRDLGLYREVTDRIRESDTDVVLNLTAGMGGDIVFGGVERPLPVTEDGTDMIGASARVAHVAECLPEICTLDCGTMNFAEADYVMTNTPGMLQAMGQMMTDLGVKPEIEAFDTGHLWYAKQLVKDGVLKSDALVQLCMGVPWGAPNDLNTFMAMVNNVPDDWNWSAFSLGRDQMAYVAASVLAGGNVRVGLEDNLYLDKGVLAENWQLVERAGTIVSNLGARVITPAEVREKLGLQKRAPITK,not soluble
12,MTDANYPIYGDIDGPIIMIGFGSIGRGTLPLIERHFNFDRTRLVVIDPREDIAAFLAERNIRHVQTHLTKENYKDVLKPLLKGVQGKGFCVNLSVDAASVDLMRICRKHGMLYIDTVVEPWPGFYFDADADNRARTNYSLRETMLKERARKPGGTTAVSTCGANPGMVSWFVKQALVNLAKDTGLDIEEPQSHDREGWAKLMQQLGVKGVHVAERDTQRAKEPKPFGAFWNTWSVEGFIAEGFQPAELGWGTHENWMPKNAKKQKKGSKAAIYLDQPGANTRVRTWCPGLGAQYGFLVTHNEAISISDYFTVRNDDGDVTYRPTCHYAYHPCNDAILSLHELFGNGGNPQPIQHVLGEDELVDGADELGVLLYGHDRNAYWYGSRLSLEEARSLAPSQNATGLQVSSAVLAGMAWAIENPEAGIVEADEMDYRRCLEVQRPYLGPVEGHYTDWTPLDGRPGLFPDNIDMSDPWQFRNILVRAAALEHHHHHH,soluble
13,MAHHHHHHMGTLEAQTQGPGSMKGEPKVIERLNEALFLELGAVNQYWLHYRLLNDWGYTRLAKKEREESIEEMHHADKLIDRIIFLEGFPNLQTVSPLRIGQNVKEVLEADLKGEYDARASYKESREICDKLGDYVSKQLFDELLADEEGHIDFLETQLDLLAKIGGERYGQLNAAPADEAE,soluble
14,MGSDKIHHHHHHMYTLNILKDSTAVMYEKMTFPAFQYVLQEINSKESLIAIAASYQEEPVGLVLAEIRTYNQSAEVLSLFVEPSHRCAGIGTNLLNRLETELTYRRCKKVELVYMTGKSTTPALENLLHKCGWTSPQPRMLVCKGEMEKGIQAPWLKQYSQLPAAYTIFPWREITTQERQAIERQQATQPWIPEDLIPFKYDKQIEPLNSLGLRYQGQVVGWLISHRIFPDTIRYTCAFCRPDIQKKGRMITLFYEAAKLQLNAKIPHFIWTTPMNHQSMVAFVKYRCLPYLTSIQETRIISKLLLG,not soluble
15,MGSDKIHHHHHHMKYNPHKYQTYATNFILEHPIAAVFLEMGLGKSVITLTAIFDLCLDSFEIGKVLVIAPLRVARDTWPAEINKWEHLKGLEFSVAIGTKQERLAALRKPASVYLINRENVDWLVNKSGIPFDYDMVVIDELSSFKSYGAKRFKSLLKVRPRAKRIVGLTGTPSSNGLMDLWAEFRILDMGKRLGRYITHYRNSFFTPDKRNQQIVFSYKPLPGAEDAIYQLISDITISMESVDFLKMPECMINEVPVYLNDKEQSVYDRFREEMVLEFADEEIDAMNAAVLSGKLLQMANGAIYDDDKNTHIIHDRKLDALEDLIEGANGKPVLIAYWYNHDLERIKAKFNVREIKTSKDIKDWNNGDISVAVIHPASAGHGLNLQSGGSTLIWFGLTWSLELYQQTNARLWRQGQNETVVIHHIITKGTIDEDVMNALRRKEKTQSDLINAVKANLGKARDAV,not soluble
16,MSLKQYKILLIVADGLGDRPVSKLNGLTPLEAANKPAITDLLKNSMIGLMDPISPGIIPGSDTSHLSIFGLDPHVYYRGRGAFEALGAGATLSHGDVAFRGNFATVNNDLVVVDRRAGRKLEEGEQLVKELNEKIKEINDVKIKFYKGTEHRIAVVLSGKGISDKVSDTDPHHEGLKVLESKPLEDSNEAIRTAEIINILTRKVFDVLNSSEINKRRIEQGEKPANIVLLRGAAHYVKLPPFSSYTKLKAAAVSATALIKGICRELGMNVITPSGATGGIDTNYNAKAKAAIELLKENDFVFLHIKATDAASHDGLVEEKVKAIERIDRVIGAIIDNIGRDNLILMFTGDHVTPVEIKEHTGDPVPVLLYVPYPIINDNVGDFNEKEARKGSLRIRGLDVTNILLNYSNRAEKYGSEGHHHHHH,soluble
17,AMAELKEFLNKPAATSDVPPAPAGFDFDAAKKLVDVRCNKCHTLDSVADLFRTKYKKTGQVNLIVKRMQGFPGSGISDDDAKTIGIWLHEKF,soluble
18,MHVSPFDWRYGSEEIRRLFTNEAIINAYLEVERALVCALEELGVAERGCCEKVNKASVSADEVYRLERETGHDILSLVLLLEQKSGCRYVHYGATSNDIIDTAWALLIRRALAAVKEKARAVGDQLASMARKYKTLEMVGRTHGQWAEPITLGFKFANYYYELYIACRQLALAEEFIRAKIGGAVGTMASWGELGLEVRRRVAERLGLPHHVITTQVAPRESFAVLASALALMAAVFERLAVEIRELSRPEIGEVVEGGGGSSAMPHKANPTASERIVSLARYVRALTHVAFENVALWHERDLTNSANERVWIPEALLALDEILTSALRVLKNVYIDEERITENLQKALPYILTEFHMNRMIKEGASRAEAYKKAKEVKALTFEYQKWPVERLIEDALSLKLC,soluble
19,MSANQEEDKKPGDGGAHINLKVKGQDGNEVFFRIKRSTQLKKLMNAYCDRQSVDMNSIAFLFDGRRLRAEQTPDELDMEDGDEIDAMLHQTGGSGGGATA,soluble
